From patent US20260347484 (published 2026)

Target: human IGF-1R (human, UniProt P08069)
Assay: BLI

Kd: 1.85 nM
B1: PHP1003-3 (designed binder)
chain 1: QVQLQQSGPGLVKPSQTLSLTCTVSGWSISGGWLWNWIRQPPGKGLQWIGWISWDGTNNWKPSLKDRVTISVDTSKNQFSLKLSSVTAADTAVWWCARWGRVFFDWWGQGTLVTVSS
chain 2: DIVMTQSPLSLPVTPGQPASISCRSSQSIVHSNGNTWLQWWLQKPGQSPQLLIWKVSNRLWGVPDRFSGSGSGTDFTLKISRVQAQDVGVWWCFQGSHVPWTFGQGTKVQIK
